Ten molecules from patent publication US20200317768A1 (published 2020) can be followed below.

Substitutions are numbered along the chain they refer to.

The target in experiment [1] is T1, cynomolgus monkey FcγRIIa1 extracellular domain with C-terminal His-tag (cynomolgus monkey).
T1 construct: also called cyno FcgRIIa1; cynoFcγRIIa1
T1 chain: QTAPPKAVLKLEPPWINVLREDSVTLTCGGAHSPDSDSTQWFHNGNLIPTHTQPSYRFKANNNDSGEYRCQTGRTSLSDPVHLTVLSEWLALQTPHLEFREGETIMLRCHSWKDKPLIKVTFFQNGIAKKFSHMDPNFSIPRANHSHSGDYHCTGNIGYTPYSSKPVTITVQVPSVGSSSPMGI
In words: SPR (BIACORE); KD of SG1 / KD of variant.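 Further: relative to parent M103205H795-SG1 carrying the SG1 human heavy chain constant region.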 A general note: Surface plasmon resonance follows binding to a sensor surface in real time, without labels.

Experiment [2] deals with T2, human FcγRIIIaV extracellular domain with C-terminal His-tag (human, UniProt P08637 17-208).
T2 construct: also called human FcgRIIIaV
T2 sequence (P08637 17-208 F176V): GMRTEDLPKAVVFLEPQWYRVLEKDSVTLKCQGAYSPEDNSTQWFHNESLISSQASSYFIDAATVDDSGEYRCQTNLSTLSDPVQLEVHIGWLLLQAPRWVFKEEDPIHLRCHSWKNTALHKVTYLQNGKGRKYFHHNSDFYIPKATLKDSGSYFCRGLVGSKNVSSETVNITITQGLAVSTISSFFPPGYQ
Description: SPR (BIACORE); KD of SG1 / KD of variant.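 Further: relative to parent M103205H795-SG1 carrying the SG1 human heavy chain constant region.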

For experiment [3], the target named is T3, cynomolgus monkey FcγRIIa3 extracellular domain with C-terminal His-tag (cynomolgus monkey).
T3 construct: also called cyno FcgRIIa3; cynoFcγRIIa3
T3 chain: T1 chain with P95T, T121A, A128S, H133P, D135N
Description: SPR (BIACORE); KD of SG1 / KD of variant.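 Further: relative to parent M103205H795-SG1 carrying the SG1 human heavy chain constant region.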

Experiment [4] deals with T4, cynomolgus monkey FcγRIIIaS extracellular domain with C-terminal His-tag (cynomolgus monkey, UniProt Q8SPW2 21-206 at identity 1.00)).
T4 construct: also called cyno FcgRIIIaS; cynoFcγRIIIaS
T4 chain: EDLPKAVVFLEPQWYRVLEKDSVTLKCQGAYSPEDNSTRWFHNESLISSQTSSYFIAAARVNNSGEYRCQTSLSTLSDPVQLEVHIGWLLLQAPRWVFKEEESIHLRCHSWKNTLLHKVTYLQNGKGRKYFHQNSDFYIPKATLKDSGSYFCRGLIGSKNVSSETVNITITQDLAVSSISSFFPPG
In words: SPR (BIACORE); KD of SG1 / KD of variant.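 Further: relative to parent M103205H795-SG1 carrying the SG1 human heavy chain constant region.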

The target of experiment [5] is T5, human FcγRIIb extracellular domain with C-terminal His-tag (human, UniProt P31994 43-217).
T5 construct: also called human FcgRIIb
T5 sequence: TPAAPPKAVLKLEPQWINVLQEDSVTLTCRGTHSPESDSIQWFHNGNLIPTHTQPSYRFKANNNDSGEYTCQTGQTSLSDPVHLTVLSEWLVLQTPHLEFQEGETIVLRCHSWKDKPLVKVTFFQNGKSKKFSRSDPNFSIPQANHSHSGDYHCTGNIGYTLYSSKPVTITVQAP
In words: SPR (BIACORE); KD of SG1 / KD of variant.

Experiment [6] concerns the target T6, human FcγRIIaH extracellular domain with C-terminal His-tag (human, UniProt P12318 34-217).
T6 construct: also called human FcgRIIaH; FcγRIIa (type H)
T6 sequence: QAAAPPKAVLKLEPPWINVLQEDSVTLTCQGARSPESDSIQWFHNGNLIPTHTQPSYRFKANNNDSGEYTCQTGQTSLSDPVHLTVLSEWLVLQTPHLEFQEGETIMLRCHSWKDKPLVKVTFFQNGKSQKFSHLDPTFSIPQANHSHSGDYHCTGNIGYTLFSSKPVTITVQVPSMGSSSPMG
Description: SPR (BIACORE); KD of SG1 / KD of variant.

Experiment [7] deals with T7, cynomolgus monkey FcγRIIa2 extracellular domain with C-terminal His-tag (cynomolgus monkey).
T7 construct: also called cyno FcgRIIa2; cynoFcγRIIa2
T7 chain: T1 chain with P95T, T121A, I127K, A128S, K130N, D135N, R142Q
Description: SPR (BIACORE); KD of SG1 / KD of variant.

For experiment [8], the target named is T8, cynomolgus monkey FcγRIIb extracellular domain with C-terminal His-tag (cynomolgus monkey).
T8 construct: also called cyno FcgRIIb; cynoFcγRIIb
T8 chain: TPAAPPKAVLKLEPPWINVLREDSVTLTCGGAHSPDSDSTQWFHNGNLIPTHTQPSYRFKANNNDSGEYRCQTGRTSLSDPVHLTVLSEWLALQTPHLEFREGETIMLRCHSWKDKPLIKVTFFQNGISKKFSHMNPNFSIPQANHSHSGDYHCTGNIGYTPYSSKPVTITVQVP
In words: SPR (BIACORE); KD of SG1 / KD of variant.

Experiment [9] addresses T8, cynomolgus monkey FcγRIIb extracellular …. Description: SPR (BIACORE), antibody captured, FcgR analyte.

B1: M103205H795-MY342/M103202L889-SK1 (antibody, human IgG1, kappa)
heavy: QVTLKESGPVLVKPTETLTLTCTVSGIDLSHDDISWVRQAPGKGLEWVGIISYAGSTYYASWAKGRLTISKDTSKNQVVLTMTNMDPVDTATYYCARGVPAYSHGGDLWGQGTLVTVSSASTKGPSVFPLAPSSKSTSGGTAALGCLVKDYFPEPVTVSWNSGALTSGVHTFPAVLQSSGLYSLSSVVTVPSSSLGTQTYICNVNHKPSNTKVDKKVEPKSCDKTHTCPPCPAPELLLGPSVFLFPPKPKDTLMISRTPEVTCVVVDVSDEDPEVKFNWYVDGVEVHNAKTKPREELYNSTYRVVSVLTVLHQDWLNGKEYKCKVSNKALPKPIEKTISKAKGQPREPQVYTLPPSREEMTKNQVSLTCLVKGFYPSDIAVEWESNGQPENNYKTTPMVLDSDGSFFLYSKLTVDKSRWQQGNVFSCSVMHEALHNHYTQKSLSLSP
light: DIVMTQSPATLSLSPGERATLSCTSSQSVYHANWLSWFQQKPGQPPKLLIYWASTLAYGVPSRFSGSGSGTDFTLTISSLQPEDAATYYCAGGYGGGRYAFGQGTKVEIKRTVAAPSVFIFPPSDEQLKSGTASVVCLLNNFYPREAKVQWKVDNALQSGNSQESVTEQDSKDSTYSLSSTLTLSKADYEKHKVYACEVTHQGLSSPVTKSFNRGEC
notes: Substitutions introduced into M103205H795-SG1, expressed with M103202L889-SK1 as light chain; EU numbering
Broadly, the Kd is the equilibrium constant for the complex coming apart. In the case of B1, the “KD fold (SG1 = 1)” value in [1] is 0.6 fold; in experiment [2], 0.03 fold; in [3] it was 0.3 fold; in experiment [4], 0.14 fold; in experiment [5], 1.2 fold; in [6], 1.9 fold. Besides, the “KD fold (SG1 = 1)” value amounted to 0.6 fold in experiment [7] and 1.4 fold in experiment [8]. For the same molecule, the affinity in [9], expressed as Kd, was 1300 nM.

B2: M103205H795-MY380/M103202L889-SK1 (antibody, human IgG1, kappa)
heavy: B1 heavy with L238N, D270E, L297Q, M398K
light: B1 light
notes: as for B1
Consider B2, for which the “KD fold (SG1 = 1)” value in [1] turned out to be 3.4 fold; in experiment [2], 0.08 fold; in experiment [3] it was 3.2 fold; in experiment [4], 0.13 fold; in experiment [5] it was 9.6 fold; in experiment [6], 1.5 fold. Besides, the “KD fold (SG1 = 1)” value in experiment [7] was determined as 5.1 fold; in [8] it was 6.2 fold. This molecule registered a Kd in experiment [9] of 290 nM.

B3: M103205H795-MY388/M103202L889-SK1 (antibody, human IgG1, kappa)
heavy: B1 heavy with L238T, S241I, L297Q, M398P
light: B1 light
notes: as for B1
Consider B3, for which the “KD fold (SG1 = 1)” value was 1.5 fold in [1]; 0.19 fold in experiment [2]; 13.1 fold in [3]; 0.23 fold in [4]; 3.1 fold in experiment [5]; 2.1 fold in experiment [6]. Further, the “KD fold (SG1 = 1)” value in experiment [7] is 3 fold; in [8], 2.4 fold. Also, in experiment [9], the Kd was found to be 760 nM.

B4: M103205H795-MY400/M103202L889-SK1 (antibody, human IgG1, kappa)
heavy: B1 heavy with L238T, L297Q, P333E, M398P
light: B1 light
notes: as for B1
Regarding B4, the “KD fold (SG1 = 1)” value in experiment [1] amounted to 1.8 fold; in [2], 0.1 fold; in [3] it was 4.5 fold; in [4], 0.15 fold; in experiment [5] it was 1.8 fold; in experiment [6], 1.6 fold. The figures for the “KD fold (SG1 = 1)” value in experiment [7] and in [8] were 2.3 fold and 2.9 fold, respectively. The molecule further had a dissociation constant Kd in experiment [9] of 630 nM.

B5: M103205H795-MY389/M103202L889-SK1 (antibody, human IgG1, kappa)
heavy: B1 heavy with L238T, S241L, L297Q, M398P
light: B1 light
notes: as for B1
In the case of B5, the “KD fold (SG1 = 1)” value in [1] stood at 1.6 fold; in experiment [2], 0.23 fold; in experiment [3], 12.1 fold; in experiment [4], 0.24 fold; in experiment [5] it was 4.2 fold; in experiment [6], 2.6 fold. In addition, the “KD fold (SG1 = 1)” value in experiment [7] was 3.2 fold; in [8] it was 2.6 fold. In addition, the Kd in experiment [9] is 700 nM.

B6: M103205H795-MY514/M103202L889-SK1 (antibody, human IgG1, kappa)
heavy: B1 heavy with L238T, S241V, L297Q, S300L, M398P
light: B1 light
notes: as for B1
In the case of B6, the “KD fold (SG1 = 1)” value in experiment [1] turned out to be 12.3 fold; in experiment [2], 0.08 fold; in [3] it was 11.3 fold; in experiment [4], 0.08 fold; in experiment [5], 6.7 fold; in experiment [6], 2 fold. The “KD fold (SG1 = 1)” value in [7] was determined as 3.2 fold; in [8], 2.4 fold. Besides, in experiment [9], the affinity, expressed as Kd, was 760 nM.

B7: M103205H795-MY387/M103202L889-SK1 (antibody, human IgG1, kappa)
heavy: B1 heavy with L238T, S241V, L297Q, M398P
light: B1 light
notes: as for B1
For the molecule B7, the “KD fold (SG1 = 1)” value in experiment [1] is 1.4 fold; in experiment [2], 0.17 fold; in [3], 12.1 fold; in [4], 0.14 fold; in experiment [5], 2.5 fold; in [6] it was 2.5 fold. The “KD fold (SG1 = 1)” value is 2.7 fold in experiment [7] and 2.2 fold in experiment [8]. Besides, binding in [9] was characterised by a dissociation constant (Kd) of 830 nM.

B8: M103205H795-MY386/M103202L889-SK1 (antibody, human IgG1, kappa)
heavy: B1 heavy with K328T, M398P
light: B1 light
notes: as for B1
For B8, the “KD fold (SG1 = 1)” value in experiment [1] came out at 0.6 fold; in experiment [2], 0.03 fold; in experiment [3] it was 1.1 fold; in experiment [4], 0.14 fold; in [5] it was 1 fold; in experiment [6] it was 0.9 fold. The “KD fold (SG1 = 1)” value in experiment [7] came to 0.9 fold; in experiment [8] it was 1.1 fold. The same molecule had a Kd in experiment [9] of 1500 nM.

B9: M103205H795-MY515/M103202L889-SK1 (antibody, human IgG1, kappa)
heavy: B1 heavy with L238T, S300L, M398P
light: B1 light
notes: as for B1
In the case of B9, the “KD fold (SG1 = 1)” value in experiment [1] was found to be 22.9 fold; in [2], 0.09 fold; in experiment [3], 5.9 fold; in experiment [4], 0.09 fold; in experiment [5], 3.8 fold; in experiment [6], 3.1 fold. Besides, the “KD fold (SG1 = 1)” value in [7] came out at 3.2 fold; in experiment [8], 4.6 fold. Moreover, binding in [9] was put at a Kd of 390 nM.

B10: M103205H795-MY392/M103202L889-SK1 (antibody, human IgG1, kappa)
heavy: B1 heavy with L238T, L297Q, S300L, M398P
light: B1 light
notes: as for B1
With B10, the “KD fold (SG1 = 1)” value worked out at 10.7 fold in [1]; 0.09 fold in experiment [2]; 4.4 fold in experiment [3]; 0.09 fold in [4]; 2.7 fold in experiment [5]; 1.6 fold in [6]. Further, the “KD fold (SG1 = 1)” value in experiment [7] came out at 2.2 fold; in experiment [8], 2.6 fold. In experiment [9], this molecule yielded a Kd of 700 nM.
